The source of these data is publication PMC5563082.

A value given as a limit tells only on which side of the number the result lay.

The stoichiometry N is the number of molecules, sites or subunits per partner or assembly. As a reminder, the Kd is a measure of binding affinity in units of concentration.

Experiment [1] has as its target human NL1 cholinesterase domain lacking splice inserts (hNL1(–A–B)_(ECTO); Gln46-Asp635), crystallisation sample (human). The experiment in a line: crystal structure; Endo F1-treated hNL1(–A–B)_(ECTO)–cMDGA1_(ECTO) complex, mixed 1:1.25, 0.1M Na.HEPES pH 7.0, 7.5% PEG8000; 3.30 Å.
Experiment [2] deals with human NL1(–A+B)_(ECTO), immobilised for SPR (human). The experiment is described as follows: SPR; biotinylated NL_(ECTO)-Avitag variants captured from dialysed conditioned medium on streptavidin CM5 chip (500 RU; 550 RU for the ΔSite series; 1000 RU for NL3 and NL3 Arg451Cys in the R451C series); β-NRX1_(LNS6)(±4), MDGA1_(ECTO), MDGA2_(ECTO) injected, 15 concentrations, two-fold series from 50 μM; TBS-CTB (10 mM Tris pH 7.4, 150 mM NaCl, 3 mM CaCl2, 0.005% Tween-20, 1.0 g/L BSA); equilibrium analysis, 1:1 Langmuir model. (SPR reads the build-up and loss of mass on a sensor chip optically.)

For experiment [3], the target named is human NL1(–A–B)_(ECTO) (Gln46-Asp635), soluble protein for ITC and as SPR analyte (human). The experiment is described as follows: ITC; competition: β-NRX1_(LNS6)(–4) titrated into NL1_(ECTO) with an equimolar amount of MDGA1_(ECTO) in the cell; HBS-C, 295 K; apparent KD. (In ITC the heat of successive injections is recorded.)
The target is the same in experiment [4]. The experiment is described as follows: ITC; β-NRX1_(LNS6)(–4) in the syringe titrated into NL1_(ECTO) alone in the cell; HBS-C (10 mM HEPES pH 7.50, 150 mM NaCl, 3 mM CaCl2), 295 K; one binding site model.
The target in experiment [5] is human NL1(–A–B)_(ECTO), biotinylated and immobilised for SPR (human). The experiment in a line: SPR; biotinylated NL_(ECTO)-Avitag variants captured from dialysed conditioned medium on streptavidin CM5 chip (500 RU; 550 RU for the ΔSite series; 1000 RU for NL3 and NL3 Arg451Cys in the R451C series); β-NRX1_(LNS6)(±4), MDGA1_(ECTO), MDGA2_(ECTO) injected, 15 concentrations, two-fold series from 50 μM; TBS-CTB (10 mM Tris pH 7.4, 150 mM NaCl, 3 mM CaCl2, 0.005% Tween-20, 1.0 g/L BSA); equilibrium analysis, 1:1 Langmuir model.

Experiment [6] concerns the target human NL3(–A)_(ECTO) (Gln38-Asp636), immobilised for SPR (human) (UniProt Q9NZ94). The description is as above.

human NL3(–A)_(ECTO) (Gln38-Asp636), immobilised for SPR (human), sequence (Q9NZ94 other isoform, or with tags, fused parts or gaps): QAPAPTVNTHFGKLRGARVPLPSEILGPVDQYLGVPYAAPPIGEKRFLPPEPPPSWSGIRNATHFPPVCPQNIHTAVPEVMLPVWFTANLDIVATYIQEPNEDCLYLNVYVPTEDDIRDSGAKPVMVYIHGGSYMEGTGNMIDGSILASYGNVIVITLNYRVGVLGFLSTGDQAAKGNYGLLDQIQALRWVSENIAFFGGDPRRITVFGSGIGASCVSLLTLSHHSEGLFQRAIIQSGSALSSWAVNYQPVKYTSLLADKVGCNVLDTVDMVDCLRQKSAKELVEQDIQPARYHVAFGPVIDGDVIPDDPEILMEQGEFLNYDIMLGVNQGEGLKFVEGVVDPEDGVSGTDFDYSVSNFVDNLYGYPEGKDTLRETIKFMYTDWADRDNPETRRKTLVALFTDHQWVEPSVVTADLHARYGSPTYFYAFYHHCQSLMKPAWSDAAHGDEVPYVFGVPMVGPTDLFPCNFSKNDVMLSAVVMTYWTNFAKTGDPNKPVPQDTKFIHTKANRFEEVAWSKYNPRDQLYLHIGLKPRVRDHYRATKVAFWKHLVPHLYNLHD

In experiment [1], “human NL1 cholinesterase domain lacking splice inserts (hNL1(–A–B)_(ECTO); Gln46-Asp635), crystallisation sample (domain or fragment)” returned a stoichiometry N of 2.

As to “human β-neurexin-1 LNS6 domain with SS4 (β-NRX1_(LNS6)(+4)) (domain or fragment)”, in experiment [2], the fold weaker than with NL1(–A–B) (ECTO) is under 2 fold.

“human β-neurexin-1 LNS6 domain lacking SS4 (β-NRX1_(LNS6)(–4); His85-Val265) (domain or fragment)”: the K (D,app) with an equimolar amount of MDGA1 (ECTO) in experiment [3] was determined as 4.76 µM. The Kd in experiment [4] turned out to be 388 nM; in experiment [5], 718 nM; in experiment [6], 8500 nM. In experiment [2], this substance showed a fold weaker than with NL1(–A–B) (ECTO) of under 2 fold.
